Reference: patent US20250361322A1 (ICONIC THERAPEUTICS, published 2025)
Like-named read-outs stand apart in the source and are kept apart here.

Columns and labels:
[1] = biological target: T1, h108-219_r (human/rat chimera); experiment: live cell staining, flow cytometry, transfected HEK293
T1 chain: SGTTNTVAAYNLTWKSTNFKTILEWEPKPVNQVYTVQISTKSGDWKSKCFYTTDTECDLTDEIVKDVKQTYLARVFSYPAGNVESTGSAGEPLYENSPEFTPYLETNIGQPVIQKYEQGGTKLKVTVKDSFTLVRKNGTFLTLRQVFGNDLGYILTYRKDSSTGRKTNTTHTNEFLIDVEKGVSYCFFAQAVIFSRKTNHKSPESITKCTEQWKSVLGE
Method: (§1) To establish binding of the anti-human TF antibodies to the various TF constructs, HEK293 cells were transfected with a DNA plasmid that co-expresses the TF construct and a green fluorescent protein marker. […] Upon acquisition of 80,000 live events on a flow cytometer, live cells marked with the fluorescent marker were analyzed for the degree of staining by the anti-TF antibody.

[2] = biological target: T2, human TF ECD-His6 (human, UniProt P13726 33-251); experiment: BLI (ForteBio Octet)
T2 construct: Expi293-derived; Biacore used TF-His; also called TF-His; hTF

[3] = biological target: T3, cynomolgus monkey TF ECD-His6 (cynomolgus monkey (Macaca fascicularis)); experiment: BLI (ForteBio Octet)
T3 construct: Expi293-derived; also called TF-His; cTF
T3 chain: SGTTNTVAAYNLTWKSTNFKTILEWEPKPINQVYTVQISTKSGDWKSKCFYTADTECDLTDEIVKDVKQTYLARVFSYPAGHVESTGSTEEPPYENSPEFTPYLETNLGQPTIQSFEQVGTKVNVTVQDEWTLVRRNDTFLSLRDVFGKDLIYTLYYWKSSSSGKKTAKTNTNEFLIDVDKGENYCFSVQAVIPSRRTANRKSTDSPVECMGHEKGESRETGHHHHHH

[4] = biological target: T4, mouse TF ECD-His6 (mouse, UniProt P20352 29-251); experiment: BLI (ForteBio Octet)
T4 construct: Expi293-derived; also called TF-His; mTF

[5] = biological target: T5, hTF_N171H_T197K construct on HEK293 cells (human, UniProt P13726 33-251); experiment: live cell staining, HEK293 cells
T5 construct: The entry already carries N171H and T197K; not shown: transmembrane/cytoplasmic anchor of the cell-surface construct
T5 chain: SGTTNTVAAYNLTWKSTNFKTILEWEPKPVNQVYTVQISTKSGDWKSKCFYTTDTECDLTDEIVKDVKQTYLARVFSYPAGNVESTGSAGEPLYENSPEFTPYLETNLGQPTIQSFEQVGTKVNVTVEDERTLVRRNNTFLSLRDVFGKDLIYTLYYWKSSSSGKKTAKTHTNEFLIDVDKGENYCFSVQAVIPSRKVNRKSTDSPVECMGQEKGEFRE

[6] = biological target: T2, human TF ECD-His6; experiment: SPR (Biacore), TF-His over coupled antibody
Method: (§2) Kinetic measurements for the anti-TF antibodies were conducted on an Octet QK384 (Pall ForteBio, Fremont, CA, USA) or a Biacore (GE Healthcare Bio-Sciences).
(§3) For the Biacore-based measurements, the antibody was covalently coupled to a CM5 or C1 chip using an amine-coupling kit (GE Healthcare Bio-Sciences). Association between the anti-TF antibodies and a five-point three-fold titration of TF-His starting at 25 to 500 nM was measured for 300 sec. Subsequently, dissociation between the anti-TF antibody and TF-His was measured for up to 1800 sec. Kinetic data was analyzed and fitted globally using a 1:1 binding model.

[7] = biological target: T3, cynomolgus monkey TF ECD-His6; experiment: SPR (Biacore), TF-His over coupled antibody
Method: as §2, §3

[8] = biological target: T6, full-length mouse TF with a C-terminal FLAG tag on Flp-In-CHO cells (mouse, UniProt P20352 29-294); experiment: flow cytometry on CHO cells expressing mouse TF, MFI at 250 nM antibody
T6 construct: also called CHO-mTF; mouse TF-positive CHO cells
Method: (§4) After 2 washes, dead cells were labeled with TO-PRO-3 Iodide (ThermoFisher Scientific) and samples were analyzed on a CytoFLEX flow cytometer (Beckman Coulter, Brea, CA, USA) or Novocyte flow cytometer (ACEA Biosciences, San Diego, CA, USA). The median fluorescence intensities (MFIs) at each dilution were plotted and cell EC₅₀'s were derived using a 4-parameter binding model in Prism (GraphPad, La Jolla, CA, USA).

[9] = biological target: T7, human Tissue Factor on human TF-positive cells (human, UniProt P13726 33-295); experiment: flow cytometry, antibody titration on A431 cells (human TF), 4-parameter fit of MFI
T7 construct: also called hTF; CD142
Method: as §4

[10] = biological target: T7, human Tissue Factor on human …; experiment: flow cytometry, antibody titration on MDA-MB-231 cells (human TF), 4-parameter fit of MFI
Method: as §4

[11] = biological target: T7, human Tissue Factor on human …; experiment: flow cytometry, antibody titration on HCT-116 cells (endogenous human TF), 4-parameter fit of MFI
Method: as §4

[12] = biological target: T7, human Tissue Factor on human …; experiment: flow cytometry, titration of unconjugated antibody on HCT-116 cells (human TF), 4-parameter fit of MFI
[13] = biological target: T8, rTF (rat TF) construct on HEK293 cells (rat, UniProt P42533 29-252); experiment: flow cytometry (live cell staining), antibody titration 1:3 from 250 nM on HEK293 cells transfected with rTF
T8 construct: not shown: transmembrane/cytoplasmic anchor of the cell-surface construct

[14] = biological target: T7, human Tissue Factor on human …; experiment: competition flow cytometry on MDA-MB-231 cells: unlabeled antibody titration first, then 20 nM 25A3-Alexa488 as the competitor
[15] = biological target: T7, human Tissue Factor on human …; experiment: as above; remark: listed apart in the source
[16] = biological target: T7, human Tissue Factor on human …; experiment: competition flow cytometry on MDA-MB-231 cells: unlabeled antibody titration first, then 20 nM 43D7-Alexa488 as the competitor
Method: After another 1 hr incubation on ice, cells were washed, stained with a viability dye, and analyzed by flow cytometry. The Alexa488 fluorescence data from viable cells was summarized using median fluorescence intensity.

[17] = biological target: T9, Macaca mulatta TF on RF/6A cells (Macaca mulatta (protein sequence stated …, UniProt P13726 33-294 (human entry))); experiment: flow cytometry, IgG1 titrated on TF-positive Macaca mulatta RF/6A cells, 4-parameter fit
T9 construct: Endogenous TF of the RF/6A cell line; also called TF-positive Macaca mulatta RF/6A cells; cynomolgus TF
T9 chain: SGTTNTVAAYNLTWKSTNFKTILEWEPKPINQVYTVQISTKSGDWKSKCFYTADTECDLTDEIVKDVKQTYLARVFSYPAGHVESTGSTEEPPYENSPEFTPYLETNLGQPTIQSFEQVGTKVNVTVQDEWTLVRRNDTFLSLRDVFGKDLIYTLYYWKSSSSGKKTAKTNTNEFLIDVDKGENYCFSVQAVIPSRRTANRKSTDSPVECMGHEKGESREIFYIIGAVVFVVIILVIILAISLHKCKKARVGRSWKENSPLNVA
Method: as §4

[18] = biological target: T10, E. coli-derived TF (human (Example 17 does not restate the …, UniProt P13726 33-251)); experiment: protein ELISA, plate coated with E. coli-derived TF-His, antibody titrated, HRP secondary, luminescence
T10 construct: also called E. coli-derived TF-His; E. coli-derived TF protein
Method: (§5) Plates coated with Expi293- or E. coli-derived TF-His were incubated with increasing concentrations of antibodies.

[19] = biological target: T11, Expi293-derived TF-His (human (Example 17 does not restate the …, UniProt P13726 33-251)); experiment: protein ELISA, plate coated with Expi293-derived TF-His, antibody titrated, HRP secondary, luminescence; Expi293-derived TF, not E. coli-derived
T11 construct: Glycosylated TF ECD-His6 from Expi293 cells; also called Expi293-derived TF protein; TF ECD-His6
Method: as §5

[20] = biological target: T12, r141-194_h chimeric rat-human TF construct on HEK293 cells (rat with human segment, UniProt P42533 29-252); experiment: flow cytometry (live cell staining), antibody titration 1:3 from 250 nM on HEK293 cells transfected with r141-194_h
T12 construct: not shown: transmembrane/cytoplasmic anchor of the cell-surface construct

[21] = biological target: T13, rTF (rat TF) (rat, UniProt P42533 29-252); experiment: live cell staining, flow cytometry, transfected HEK293
Method: as §1

[22] = biological target: T14, h1-107_r (human/rat chimera); experiment: as above
T14 chain: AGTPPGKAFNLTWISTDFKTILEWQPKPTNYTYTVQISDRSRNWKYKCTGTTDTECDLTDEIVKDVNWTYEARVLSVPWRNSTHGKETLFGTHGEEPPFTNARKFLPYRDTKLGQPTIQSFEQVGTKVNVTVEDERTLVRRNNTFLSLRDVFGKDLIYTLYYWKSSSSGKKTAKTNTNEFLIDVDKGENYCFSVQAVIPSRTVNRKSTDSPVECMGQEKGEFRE
Method: as §1

[23] = biological target: T15, h1-77_r (human/rat chimera); experiment: as above
T15 construct: Human TF ECD with residues 1-77 replaced by rat segment
Method: as §1

[24] = biological target: h159-219_r (human/rat chimera); experiment: as above
Method: as §1

[25] = biological target: T16, hTF (human Tissue Factor construct) (human, UniProt P13726 33-251); experiment: as above
T16 construct: also called human TF
Method: as §1

[26] = biological target: T13, rTF (rat TF); experiment: as above; remark: listed apart in the source
Method: as §1

[27] = biological target: r141-194_h (rat/human chimera, UniProt P42533 29-252); experiment: as above
Method: as §1

[28] = biological target: T17, hTF_N171H_T197K (human, UniProt P13726 33-251); experiment: as above
T17 chain: T5 chain
Method: as §1

B1: 5G9 (humanized TF8-5G9, CNTO 860) (antibody, V domains shown)
VH: QVQLVESGGGVVQPGRSLRLSCKASGFNIKDYYMHWVRQAPGKGLEWIGLIDPENGNTIYDPKFQGRFTISADNSKNTLFLQMDSLRPEDTAVYYCARDNSYYFDYWGQGTPVTVSS
VL: DIQMTQSPSSLSASVGDRVTITCKASQDIRKYLNWYQQKPGKAPKLLIYYATSLADGVPSRFSGSGSGTDYTFTISSLQPEDIATYYCLQHGESPYTFGQGTKLEIT
notes: Previously described anti-TF antibody; detected with anti-human IgG-Fc; also called h5G9
percent antibody binding to TF construct relative to hTF [1]: 0%

B2: 25A3 (antibody, human IgG1, V domains shown)
VH: QVQLVQSGAEVKKPGASVKVSCKASGYTFDVYGISWVRQAPGQGLEWMGWIAPYSGNTNYAQKLQGRVTMTTDTSTSTAYMELRSLRSDDTAVYYCARDAGTYSPFGYGMDVWGQGTTVTVSS
VL: DIQMTQSPSTLSASVGDRVTITCQASQSINNWLAWYQQKPGKAPKLLIYKAYNLESGVPSRFSGSGSGTEFTLTISSLQPDDFATYYCQLFQSLPPFTFGGGTKVEIK
notes: Human IgG1; also called antibody designated 25A3
Kd [2]: 1.67 nM
Kd [3]: 1.36 nM
Kd [4]: 131 nM
binding result [5]: no binding (tested: 15 ug/ml (100 nM); below 50% of hTF)
Kd [6]: 0.36 nM
Kd [7]: 0.21 nM
MFI at 250 nM [8]: 5.8e+06
EC50 [9]: 0.5 nM
EC50 [10]: 0.17 nM
EC50 [11]: 0.077 nM
EC50 [12]: 0.16 nM
binding result [13]: no binding (tested: 250 nM)
IC50 [14]: 1.13 nM
IC50 [15]: 1.03 nM
IC50 [16]: 0.84 nM

B3: 1F (antibody, human IgG1, V domains shown)
VH: EVQLLESGGGLVQPGGSLRLSCAASGFTFSDYAMGWVRQAPGKGLEWVSTISGSGGLTYYADSVKGRFTISRDNSKNTLYLQMNSLRAEDTAVYYCAKAPYGYYMDVWGKGTTVTVSS
VL: not shown
notes: Human IgG1; also called antibody designated 1F
EC50 [17]: 0.17 nM
EC50 [18]: 0.32 nM
EC50 [19]: 0.41 nM

B4: 10H10 (M1593) (antibody, V domains shown)
VH: EVQLVQSGAEVKKPGESLRISCKGSGYTFAPYWIEWVRQMPGKGLEWMGDILPGTGFTTYSPSFQGHVTISADKSISTAYLQWSSLKASDTAMYYCARSGYYGNSGFAYWGQGTLVTVSS
VL: DIVMTQTPLSLPVTPGEPASISCKSSQSLLSSGNQKNYLTWYLQKPGQSPQLLIYWASTRESGVPDRFSGSGSGTDFTLKISRVEAEDVGVYYCQNDYTYPLTFGQGTKLEIK
notes: also called anti-TF M1593
binding result [13]: no binding (tested: 250 nM)
binding result [20]: no binding (tested: 250 nM)

B5: 39A (antibody, V domains shown)
VH: QVQLVQSGAEVKKPGSSVKVSCKASGGTFSSNAIGWVRQAPGQGLEWMGSIIPIIGFANYAQKFQGRVTITADESTSTAYMELSSLRSEDTAVYYCARDSGYYYGASSFGMDVWGQGTTVTVSS
VL: EIVMTQSPATLSVSPGERATLSCRASQSVSSNLAWYQQKPGQAPRLLIYGASTRATGIPARFSGSGSGTEFTLTISSLQSEDFAVYYCEQYNNLPLTFGGGTKVEIK
notes: Human IgG (detected with anti-human IgG-Fc)
percent antibody binding to TF construct relative to hTF [21]: 0%
percent antibody binding to TF construct relative to hTF [22]: 0%
percent antibody binding to TF construct relative to hTF [23]: 0%
percent antibody binding to TF construct relative to hTF [24]: 141%
percent antibody binding to TF construct relative to hTF [25]: 100%
percent antibody binding to TF construct relative to hTF [26]: 0%
percent antibody binding to TF construct relative to hTF [27]: 0%
percent antibody binding to TF construct relative to hTF [28]: 94%
